The series can be described thus: self-splicing fitness, log relative to wild type (ln ratio); higher = more splicing; Tetrahymena group I intron in knt gene, E. coli kanamycin selection, DiMSum; sequences stand for … in CUCUCU…GGAGGGAAAAGUUAUCAGGCAUGCACCUGGUAGCUAGUCUUUAAACCAAUAGAUUGCAUCGGUUUAAAAGGCAAGACCGUCAAAUUGCGGGAAAGGGGUCAACAGCCGUUCAGUACCAAGUCUCAGGGGAAACUUUGAGAUGGCCUUGCAAAGGGUAUGGUAAUAAGCUGACGGACAUGGUCCUAACCACGCAGCCAAGUCCUAAGUCAACAGAUCUUCUGUUGAUAUGGAUGCAGUUCACAGACUAAAUGUCGGUCGGGGAAGAUGUAUUCUUCUCAUAAGAUAUAGUCGGACCUCUCCUUAAUGGGAGCUAGCGGAUGAAGUGAUGCAACACUGGAGCCGCUGGGAACUAAUUUGUAUGCGAAAGUAUAUUGAUUAGUUUUGGAGUACUCGUGGUCG
The essentials:
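DiMSum derived fitness as the error-weighted combination of fold changes across replicates, kanamycin versus no kanamycin, normalised to wild type. E. coli BL21(DE3) held the library, which randomised all eight P1ex-region intron nucleotides within the knt kanamycin-resistance gene on pET-22b(+). Six replicate transformations grew overnight at 37°C or 30°C on LB agar with or without 25 μg/mL kanamycin, also containing 100 μg/mL carbenicillin, 50 μM IPTG and 0.2% rhamnose, and pooled colonies were amplicon-sequenced on an Illumina HiSeq 2500.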

Results on 39 sequences are retold here after the supplement of paper PMC7877785.

± gives the uncertainty stated by the source.

As for CUACAGCAAUAUUACGGGGU, the “self-splicing fitness (ln)” value is -3.62 ± 0.12 (30 °C) and -2.34 ± 0.14 (37 °C).
For CUUCAGCAAUAUUACGAUUA, in that order: -3.05 ± 0.41 and -1.55 ± 0.22.
For UCUAAGCAAUAUUACGGGAG, in that order: -3.79 ± 0.16 and -2.5 ± 0.14.
In the case of CGGGAGCAAUAUUACGAGUC, the “self-splicing fitness (ln)” value (37 °C) is -1.07 ± 0.26.
CAUAAGCAAUAUUACGACAA: the “self-splicing fitness (ln)” value was -3.05 ± 0.28 (30 °C) and -1.59 ± 0.19 (37 °C).
For CCAUAGCAAUAUUACGUGUC, in that order: -3.89 ± 0.2 and -2.45 ± 0.23.
As to AUUUAGCAAUAUUACGCUAG, the “self-splicing fitness (ln)” value is -0.961 ± 0.097 (30 °C) and -0.937 ± 0.12 (37 °C).
AGCGAGCAAUAUUACGUGCA: the “self-splicing fitness (ln)” value by setting is: (30 °C) -1.78 ± 0.14; (37 °C) -1.21 ± 0.14.
For AACAAGCAAUAUUACGUCGC, in that order: -3.63 ± 0.14 and -2.21 ± 0.17.
As to GAGCAGCAAUAUUACGCUAC, the “self-splicing fitness (ln)” value (37 °C) is -1.95 ± 0.33.
In the case of AACCAGCAAUAUUACGGGGG, the “self-splicing fitness (ln)” value (30 °C) is -2.43 ± 0.095 and the “self-splicing fitness (ln)” value (37 °C) was -1.02 ± 0.091.
The like results for ACGCAGCAAUAUUACGAGCG were, in that order, -1.54 ± 0.083 and -0.23 ± 0.1.
As to UUAUAGCAAUAUUACGUCGU, the “self-splicing fitness (ln)” value (30 °C) is -3.1 ± 0.3.
For ACACAGCAAUAUUACGAUGG, the “self-splicing fitness (ln)” value runs as follows: (30 °C) -1.53 ± 0.064; (37 °C) -0.66 ± 0.082.
For the sequence GGAAAGCAAUAUUACGAAGG, the “self-splicing fitness (ln)” value was -3.22 ± 0.23 (30 °C) and -2.5 ± 0.38 (37 °C).
For CCCGAGCAAUAUUACGGCGG, in that order: -3.49 ± 0.23 and -1.66 ± 0.2.
Regarding CAAAAGCAAUAUUACGCCGG, the “self-splicing fitness (ln)” value by setting is: (30 °C) -0.401 ± 0.098; (37 °C) -0.104 ± 0.13.
The like results for CGGAAGCAAUAUUACGUGCA were, in that order, -3.23 ± 0.23 and -0.628 ± 0.13.
For ACAUAGCAAUAUUACGUGAG, in that order: -0.863 ± 0.036 and -0.206 ± 0.062.
For AAAAAGCAAUAUUACGGUUU, in that order: -0.478 ± 0.05 and -0.225 ± 0.064.
Take AAUUAGCAAUAUUACGGUGG: the “self-splicing fitness (ln)” value runs as follows: (30 °C) -2.7 ± 0.18; (37 °C) -1.96 ± 0.22.
For GGCAAGCAAUAUUACGUCUG, in that order: -3.13 ± 0.18 and -1.09 ± 0.094.
With CUUCAGCAAUAUUACGUGCC, the “self-splicing fitness (ln)” value (30 °C) is -3.44 ± 0.31.
With AACAAGCAAUAUUACGUGGC, the “self-splicing fitness (ln)” value runs as follows: (30 °C) -3.61 ± 0.18; (37 °C) -2.52 ± 0.14.
For the sequence UAAAAGCAAUAUUACGAAGA, the “self-splicing fitness (ln)” value is -2.44 ± 0.11 (30 °C) and -1.12 ± 0.097 (37 °C).
In the case of GCGUAGCAAUAUUACGUCGC, the “self-splicing fitness (ln)” value was -2.62 ± 0.13 (30 °C) and -1.84 ± 0.21 (37 °C).
In the case of UUAGAGCAAUAUUACGAAGA, the “self-splicing fitness (ln)” value runs as follows: (30 °C) -1.27 ± 0.13; (37 °C) -0.451 ± 0.23.
For the sequence CGUAAGCAAUAUUACGUCAA, the “self-splicing fitness (ln)” value (30 °C) was -2.62 ± 0.26 and the “self-splicing fitness (ln)” value (37 °C) was -1.56 ± 0.24.
The like results for UGACAGCAAUAUUACGAGAU were, in that order, -3.55 ± 0.23 and -2.86 ± 0.26.
For AAAAAGCAAUAUUACGGCAC, in that order: -0.499 ± 0.076 and -0.593 ± 0.1.
For ACCAAGCAAUAUUACGUCGU, in that order: -2.34 ± 0.076 and -1.88 ± 0.11.
For the sequence UGAUAGCAAUAUUACGGACU, the “self-splicing fitness (ln)” value is, setting by setting: (30 °C) -1.17 ± 0.099; (37 °C) 0.214 ± 0.18.
On to AGGGAGCAAUAUUACGACUU, for which the “self-splicing fitness (ln)” value was -1.41 ± 0.18 (30 °C) and 0.0129 ± 0.18 (37 °C).
The like results for CGUUAGCAAUAUUACGUCCA were, in that order, -2.04 ± 0.41 and -1.13 ± 0.48.
For AGCGAGCAAUAUUACGGGGU, the “self-splicing fitness (ln)” value (30 °C) is -3.54 ± 0.22 and the “self-splicing fitness (ln)” value (37 °C) is -1.59 ± 0.19.
In the case of CUGUAGCAAUAUUACGUGUU, the “self-splicing fitness (ln)” value is -4.29 ± 0.17 (30 °C) and -0.79 ± 0.13 (37 °C).
The like results for GGGUAGCAAUAUUACGCUAU were, in that order, -2.86 ± 0.22 and -2.98 ± 0.31.
Regarding GGCCAGCAAUAUUACGCGGG, the “self-splicing fitness (ln)” value is -3.29 ± 0.48 (30 °C) and -3.29 ± 0.37 (37 °C).
For UAGCAGCAAUAUUACGCUUU, in that order: -1.18 ± 0.12 and -0.753 ± 0.16.
